From patent US9295682B2, “Adjuvant immunotherapy for the preventive, curative or palliative treatment of chronic systemic diseases such as cancer, of clinical manifestations associated with diseases like cachexia and correction of adverse effects of drugs such as immunosuppression, neutropenia and lymphopenia, comprising …” (priority 2009, dated 2016)

System: Lewis lung carcinoma (3LL)
Assay: Lewis lung carcinoma (3LL) survival, 1st experiment (Table A)
Format: in vivo, C57B1/6 female mice
Conditions: 100 days; IM-2 0.5 mg/kg/day alone, IM-2 0.5 mg/kg + Il-2 0.05 μg/animal, or IL-2 0.1 μg/animal alone; i.p., 3 weekly cycles
Description: Animals: 3-week-old C57B1/6 female mice were used in all the experiments (Table A, Table B, Table C)
Tumor: Lewis lung carcinoma (3LL) was the tumor selected for all the in vivo assessments (Table A, Table B, Table C) in these experiments, with the cells maintained in culture medium and inoculated subcutaneously in the animals at the concentration of 6×10^5 cancer cells (3 LL) for each animal.
Treatments: All treatments began 24 hours after the inoculation of cancer cells.
Observation period: The animals were evaluated during an observation period of 100 days in the survival experiment.
A fourth batch of 20 animals (Group 4) inoculated with 3 LL cells (6×10^5 cells/animal), was treated with 0.5 mg/kg/day of the proteic aggregate of ammonium and magnesium phospholinoleate-palmitoleate anhydride (Table A—Group 4—IM-2) and Interleukin-12 (IL-12), 0.05 g/animal given jointly by intraperitoneal injections in 3 weekly cycles. The animals were followed up for 100 days.
A fifth batch of 20 animals (Table A—Group 5) inoculated with 3 LL cells (6×10^5 cells/animal) was treated with Interleukin-12 (IL-12), 0.1 μg/animal applied by intraperitoneal injection in 3 weekly cycles. The animals were followed up for 100 days, and the number of survivors was expressed in percentage.

B1: Interleukin-12 (IL-12) (protein, UniProt P29459 23-219; P29460 23-328, looked up)
Interleukin-12 subunit alpha: RNLPVATPDPGMFPCLHHSQNLLRAVSNMLQKARQTLEFYPCTSEEIDHEDITKDKTSTVEACLPLELTKNESCLNSRETSFITNGSCLASRKTSFMMALCLSSIYEDLKMYQVEFKTMNAKLLMDPKRQIFLDQNMLAVIDELMQALNFNSETVPQKSSLEEPDFYKTKIKLCILLHAFRIRAVTIDRVMSYLNAS
Interleukin-12 subunit beta: IWELKKDVYVVELDWYPDAPGEMVVLTCDTPEEDGITWTLDQSSEVLGSGKTLTIQVKEFGDAGQYTCHKGGEVLSHSLLLLHKKEDGIWSTDILKDQKEPKNKTFLRCEAKNYSGRFTCWWLTTISTDLTFSVKSSRGSSDPQGVTCGAATLSAERVRGDNKEYEYSVECQEDSACPAAEESLPIEVMVDAVHKLKYENYTSSFFIRDIIKPDPPKNLQLKPLKNSRQVEVSWEYPDTWSTPHSYFSLTFCVQVQGKSKREKKDRVFTDKTSATVICRKNASISVRAQDRYYSSSWSEWASVPCS
- % Survivors: 50%
